What was measured:
[1] = target: T1, LG-268-NRE (Protein LG fused to Zif268-NRE six-finger zinc finger protein) (Artificial Sequence); experiment: EMSA; 0.03 mM protein, Tris-glycine, room temp 15-60 min, SYBR Gold; detector complex visible, further shifted by bovine IgG; conditions: tags: C-terminal His tag (pET20b(+)); N-terminal Protein LG fusion
[2] = target: T1, LG-268-NRE (Protein LG fused to …); experiment: EMSA; 0.03 mM protein, Tris-glycine, room temp 15-60 min, 4-20% acrylamide gel, SYBR Gold; detector complex visible, further shifted by bovine IgG; conditions: tags: C-terminal His tag (pET20b(+)); N-terminal Protein LG fusion
Description: Stock solutions of LG-268-NRE (0.1 mM), the DNA detection moiety (500 ng/μl for a 50-mer and 1 μg/μl for an 80- or 100-mers), the target analytes (Bovine IgG antibodies (Equitech Bio, B60-0010; Final concentration of 1 mg/ml), and loading buffer (Jule Tris-Glycine running buffer; Jule Inc.; Catalog Number: TGNRB10X) were combined at the same time and mixed in a microfuge tube in a final reaction volume of 75 μl. Final concentrations were as follows: 0.03 mM for LG-268-NRE, 100 ng/75 μl for the 50-mer, and 10 μg/75 μl for the 80- or 100-mers. The combined mixture was then allowed to sit for 15-60 minutes at room temperature (approximately 20-22° C.). Appropriate volumes of the controls and the mixed solution were then loaded into wells of acrylamide (50 μl) or agarose gels (75 μl) and run as described below. The agarose gels and the staining buffer are made with Jule Tris-Glycine running buffer (Jule Inc.; Catalog Number: TGNRB10X). The binding reactions are also performed with a range of protein concentrations and/or in the presence of salt, e.g., 50-100 mM KCl or NaCl. Molecular weight standards were: Bioline Hyperladder 1: BIO-33053; Hyperladder 2: BIO-33054; and Hyperladder 3: BIO-33055.

| Binder | binding result [1] | binding result [2] |
| --- | --- | --- |
| 100-mer DNA detection moiety (dsDNA) DNA 1: CCCACTTCATTGTGCCAAAGTTTTGGGGTTGATAGAAAAGATAGAGGGTATAGTGAGTCGTATTAATTTCAGAATTCATTTCAAGGGTTCAGCGTGGGCG DNA 2: CGCCCACGCTGAACCCTTGAAATGAATTCTGAAATTAATACGACTCACTATACCCTCTATCTTTTCTATCAACCCCAAAACTTTGGCACAATGAAGTGGG | binds |  |
| 80-mer DNA detection moiety (dsDNA) DNA 1: TTTTGGGGTTGATAGAAAAGATAGAGGGTATAGTGAGTCGTATTAATTTCAGAATTCATTTCAAGGGTTCAGCGTGGGCG DNA 2: CGCCCACGCTGAACCCTTGAAATGAATTCTGAAATTAATACGACTCACTATACCCTCTATCTTTTCTATCAACCCCAAAA |  | binds |

From patent US20110294135, “COMPOSITIONS AND METHODS FOR ANALYTE DETECTION AND QUANTITATION” (BioDesic, LLC, published 2011)
